The values below are quoted from earlier work in paper PMC5912896.

By pKd is commonly meant −log10 of the Kd, conventionally taken in molar units.

This series addresses Akt PH domain (Homo sapiens) (UniProt P31749).

pKd: −log10 of the molar value.

UniProt P31749, sequence (P31749 2-111): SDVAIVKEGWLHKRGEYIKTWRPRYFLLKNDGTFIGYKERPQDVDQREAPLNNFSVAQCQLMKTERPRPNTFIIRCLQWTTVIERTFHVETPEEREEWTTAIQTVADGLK

As to Akt-in peptide (TCL1 A strand), the pKd is 4.74.
